This note sets out measurements from publication PMC2120494.

The target of this assay is R-Ras or R-Ras(38V). The experiment in a line: co-IP.

As to “Raf-1 kinase, baculovirus-produced (from UniProt P04049 1-648) (enzyme)”, the percent of total Raf co-immunoprecipitated lay within 10 to 20%.
